These results are taken from patent publication US20040106198.

One data set deals with T1, N-Suc-AAPV-pNA.
T1 chain: AAPV

For a further data set, the target named is T2, N-Suc-FVR-pNA.
T2 chain: FVR

For the next data set, the target named is T3, N-Suc-AAPI-pNA.
T3 chain: AAPI

The next data set addresses T4, N-Suc-GGL-pNA.
T4 chain: GGL

The next data set has as its target T5, N-Suc-AAVA-pNA.
T5 chain: AAVA

In another data set the target is T6, N-Suc-YLV-pNA.
T6 chain: YLV

A further data set has as its target T7, N-Suc-IEGR-pNA.
T7 chain: IEGR

The target in a further data set is T8, N-Suc-AAPM-pNA.
T8 chain: AAPM

For a further data set, the target named is T9, N-Suc-GGG-pNA.
T9 chain: GGG

In the next data set the target is T10, N-Suc-GGF-pNA.
T10 chain: GGF

A further data set deals with T11, N-Suc-GFG-pNA.
T11 chain: GFG

In another data set the target is T12, N-Suc-PFR-pNA.
T12 chain: PFR

The target of data set [1] is oxidized bovine insulin B chain, P01317.
In a further data set the target is T13, N-Suc-AAV-pNA.
T13 chain: AAV

For the next data set, the target named is T14, N-Suc-AAPL-pNA.
T14 chain: AAPL

The next data set deals with T15, N-Suc-YVAD-pNA.
T15 chain: YVAD

A further data set concerns the target T16, N-Suc-VGR-pNA.
T16 chain: VGR

A further data set addresses T17, N-Suc-AAPF-pNA.
T17 chain: AAPF

The target of the next data set is T18, N-Suc-AAPA-pNA.
T18 chain: AAPA

Data set [2] deals with human growth hormone, P01241.
In another data set the target is T19, N-Suc-AAA-pNA.
T19 chain: AAA

For another data set, the target named is T20, N-Suc-GPK-pNA.
T20 chain: GPK

The target in another data set is T21, N-Suc-AAPD-pNA.
T21 chain: AAPD

Chain of oxidized bovine insulin B chain, P01317 (P01317 25-54): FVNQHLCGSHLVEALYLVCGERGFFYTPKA
Chain of human growth hormone, P01241 (P01241 27-217): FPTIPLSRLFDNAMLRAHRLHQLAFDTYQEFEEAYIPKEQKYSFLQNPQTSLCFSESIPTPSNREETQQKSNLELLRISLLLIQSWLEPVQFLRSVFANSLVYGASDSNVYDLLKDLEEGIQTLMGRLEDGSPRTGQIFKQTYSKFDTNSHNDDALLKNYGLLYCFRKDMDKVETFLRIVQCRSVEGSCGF

B1: Nicotianalisin (Nicotiana benthamiana subtilisin-like serine protease) (protein)
chain: ANCITMYFLLLTILLLTLNPLTMAESETYIIHMDLSAMPKAFSSHQNWYLTTLASVSGSSSLGTESNRNSFSSSKLVYAYTNAIHGFSATLSPSELQVIKNSPGYLSSTKDMTVKIDTTHTSQFLGLNSDSGAWPKSDYGKDVIVGLVDTGIWPESKSYNDNGMTEVPSRWKGECESGTQFNSSLCNKKLIGARYFNKGLIANNPNITISMNSARDTDGHGTHTSSTAAGSHVESASYFGYARGSATGMAPKAHVAMYKALWEEGTMLSDILAAIDQAIEDGVDIISLSLGIDDLALYEDPVAIATFAAMEKDIFVSTSAGNEGPDDQALHNGTPWVLTVAAGTVDREFIGTLSLGNGVSVTGLSLYPGNSSSSESSIVFLKTCLEEKELEKNAHKFAVCYDTNGSVSDQLYNVKNTKVAGGIFITNYTDLEFYLQSEFPAVFLNFEDGDKVLEYIKNSHSPKARLEFQVTHLGAKPAPKVASYSSRGPSESCPFILKPDLMAPGALILASWPQKSPATQIRSGELFSNFNIISGTSMSCPHAAGVAALLKGAHPKWSPAAIRSAMMTTADTMDNMQMPIRDIGRNNNAASPLAMGAGRINPNKALDPGLIYDITSQDYINLLCALDFTSQQIKAITRSSAYSCSNSSLDLNYPSFIGYFNYNSSESDPKRIQEFQRTVTNVGEGMSVYTAKLTSMGDYKASVAPDKLVFKEKYEKQSYKLRIEGPLLVDIILFMVL
For B1, the Relative Activity (release of p-NA at 410 nm, 0.3 mM substrate) (% of the activity with N-Suc-AAPL-pNA) with N-Suc-AAPV-pNA came to 8; with N-Suc-FVR-pNA, 1; in the data set with N-Suc-AAPI-pNA it was 8; with N-Suc-GGL-pNA, 1; with N-Suc-AAVA-pNA, 20; with N-Suc-YLV-pNA, 0. Besides, the Relative Activity (release of p-NA at 410 nm, 0.3 mM substrate) (% of the activity with N-Suc-AAPL-pNA) with N-Suc-IEGR-pNA turned out to be 18; in the data set with N-Suc-AAPM-pNA, 100; with N-Suc-GGG-pNA, 1; with N-Suc-GGF-pNA it was 3; with N-Suc-GFG-pNA, 1; with N-Suc-PFR-pNA, 1. For the same protein, the Relative Activity (release of p-NA at 410 nm, 0.3 mM substrate) (% of the activity with N-Suc-AAPL-pNA) with N-Suc-AAV-pNA was 5; with N-Suc-AAPL-pNA, 100; in the data set with N-Suc-YVAD-pNA, 70; in the data set with N-Suc-VGR-pNA, 3; with N-Suc-AAPF-pNA, 67; with N-Suc-AAPA-pNA, 24. Besides, the figures for the Relative Activity (release of p-NA at 410 nm, 0.3 mM substrate) (% of the activity with N-Suc-AAPL-pNA) with N-Suc-AAA-pNA, in the data set with N-Suc-GPK-pNA and with N-Suc-AAPD-pNA were 2, 2 and 16, respectively. In addition, the “hydrolysis of oxidized insulin B chain, 2 to 16 hr at 37 C, MALDI-TOF of the cleavage products (FIG. 6)” value in data set [1] is “hydrolysis occurred after leucine, cysteine, proline, and lysine amino acid residues”. In addition, the “in vitro cleavage of purified hGH at a 1:50 protease:substrate ratio, 10-30 min at 30 C, SDS-PAGE and Western blot (FIGS. 7 and 8)” value in data set [2] is on record as “Two prominent immunoreactive degradation products were detected”.
